Source: US9770469B2, “Methods of reprogramming renal cells” (Tel HaShomer Medical Research Infrastructure and Services …, priority 2009, dated 2017)

B1: sFRP1: Wnt pathway antagonist (R&D systems) (protein, UniProt Q8N474 32-314, looked up)
Secreted frizzled-related …: SEYDYVSFQSDIGPYQSGRFYTKPPQCVDIPADLRLCHNVGYKKMVLPNLLEHETMAEVKQQASSWVPLLNKNCHAGTQVFLCSLFAPVCLDRPIYPCRWLCEAVRDSCEPVMQFFGFYWPEMLKCDKFPEGDVCIAMTPPNATEASKPQGTTVCPPCDNELKSEAIIEHLCASEFALRMKIKEVKKENGDKKIVPKKKKPLKLGPIKKKDLKKLVLYLKNGADCPCHQLDNLSHHFLIMGRKVKSQYLLTAIHKWDKKNKEFKNFMKKMKNHECPTFQSVFK
B2: DKK1: Wnt pathway antagonist (R&D systems) (protein, UniProt O94907 32-266, looked up)
Dickkopf-related protein 1: TLNSVLNSNAIKNLPPPLGGAAGHPGSAVSAAPGILYPGGNKYQTIDNYQPYPCAEDEECGTDEYCASPTRGGDAGVQICLACRKRRKRCMRHAMCCPGNYCKNGICVSSDQNHFRGEIEETITESFGNDHSTLDGYSRRTTLSSKMYHTKGQEGSVCLRSSDCASGLCCARHFWSKICKPVLKEGQVCTKHRRKGSHGLEIFQRCYCGEGLSCRIQKDHHQASNSSRLHTCQRH

Key:
human fetal kidney cells = experiment: qRT-PCR after Wnt antagonists DKK1/sFRP1 with or without VPA; type: cell-based
Description: (§1) Cell Treatment: Cells were treated for 24 hours with growth medium supplemented with 1, 2, or 4 mM VPA (Sigma) or with H2O for control sample. Otherwise, cells were treated for 24 hours with growth medium supplemented with the combination of 75 μM TSA (Sigma) and 250 μM 5-AZA (Sigma) or with 100% Ethanol and Acetic Acid (Acetic Acid: H2O 1:1) for control sample. […] 24 hours prior to harvesting VPA at a concentration of 4 mM was added to the cell culture.
(§2) Quantitative Reverse Transcription-PCR: Total RNA from kidney tissue cultured cells was isolated using the TRIZOL reagent (Invitrogen) according to the manufacturer's protocols. cDNA synthesis was carried out using Verso kit (Thermo scientific) with Random primers. Quantitative RT PCR was performed using an ABI7900HT sequence detection system (Perkin-Elmer/Applied Biosystems) in the presence of SYBR green (SYBR green PCR kit; Qiagen). Each analysis reaction was performed in duplicates or triplicates. GapDH was used as an endogenous control throughout all experimental analyses. Analysis was performed using the −ΔΔCt method, which determines fold changes in gene expression relative to a comparator sample.

human adult kidney cells = experiment: as above; type: cell-based; conditions: DKK1 3 μg/ml or sFRP1 7 μg/ml 72 h; for Osr1 expression, Wnt antagonist combined with VPA / Six2 expression, Wnt antagonist combined with VPA: VPA 4 mM last 24 h; for Osr1 expression, Wnt antagonist alone: no VPA
Description: as §1, §2

[1] = fetal kidney cells, DKK1 3 μg/ml or sFRP1 7 μg/ml 72 h, VPA 4 mM last 24 h
[2] = fetal kidney cells, DKK1 3 μg/ml or sFRP1 7 μg/ml 72 h, no VPA

Molecule | Six2 expression, Wnt antagonist alone (human fetal kidney cells; FK cells, DKK1 3 μg/ml or sFRP1 7 μg/ml 72 h, no VPA) | Osr1 expression, Wnt antagonist combined with VPA (human fetal kidney cells; [1]) | Osr1 expression, Wnt antagonist alone (human fetal kidney cells; [2]) | Six2 expression, Wnt antagonist combined with VPA (human fetal kidney cells; fetal kidney cells, sFRP1 7 μg/ml 72 h, VPA 4 mM last 24 h) | Osr1 expression, Wnt antagonist combined with VPA (human adult kidney cells) | Six2 expression, Wnt antagonist combined with VPA (human adult kidney cells) | Osr1 expression, Wnt antagonist alone (human adult kidney cells)
B1 | elevated Six2 levels | synergistic affect | little effect | synergistic effect | synergistic affect | synergistic effect | little effect
B2 | – | synergistic affect | little effect | – | synergistic affect | synergistic effect | little effect
